From patent US20090042849 come the findings set out here.

Series [1] deals with T1, cycloxygenase-2, P35355.
T1 chain: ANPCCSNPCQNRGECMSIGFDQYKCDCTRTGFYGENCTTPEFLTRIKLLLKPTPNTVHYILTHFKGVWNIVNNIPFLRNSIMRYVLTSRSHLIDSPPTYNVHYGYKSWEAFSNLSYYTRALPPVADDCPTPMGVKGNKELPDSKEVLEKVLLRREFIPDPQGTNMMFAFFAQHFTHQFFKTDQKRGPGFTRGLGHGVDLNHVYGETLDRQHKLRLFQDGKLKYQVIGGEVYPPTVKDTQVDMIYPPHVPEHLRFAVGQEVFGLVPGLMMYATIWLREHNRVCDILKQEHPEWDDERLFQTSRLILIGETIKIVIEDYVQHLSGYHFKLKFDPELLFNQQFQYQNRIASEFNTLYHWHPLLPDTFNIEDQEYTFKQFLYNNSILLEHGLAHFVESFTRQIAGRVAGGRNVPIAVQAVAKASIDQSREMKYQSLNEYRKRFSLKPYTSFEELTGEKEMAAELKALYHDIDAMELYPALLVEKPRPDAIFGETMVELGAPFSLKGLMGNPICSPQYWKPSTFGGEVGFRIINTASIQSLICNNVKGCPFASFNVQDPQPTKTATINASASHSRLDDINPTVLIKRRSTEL

The target in series [2] is T2, cytosolic phospholipase A2, P50393.
T2 chain: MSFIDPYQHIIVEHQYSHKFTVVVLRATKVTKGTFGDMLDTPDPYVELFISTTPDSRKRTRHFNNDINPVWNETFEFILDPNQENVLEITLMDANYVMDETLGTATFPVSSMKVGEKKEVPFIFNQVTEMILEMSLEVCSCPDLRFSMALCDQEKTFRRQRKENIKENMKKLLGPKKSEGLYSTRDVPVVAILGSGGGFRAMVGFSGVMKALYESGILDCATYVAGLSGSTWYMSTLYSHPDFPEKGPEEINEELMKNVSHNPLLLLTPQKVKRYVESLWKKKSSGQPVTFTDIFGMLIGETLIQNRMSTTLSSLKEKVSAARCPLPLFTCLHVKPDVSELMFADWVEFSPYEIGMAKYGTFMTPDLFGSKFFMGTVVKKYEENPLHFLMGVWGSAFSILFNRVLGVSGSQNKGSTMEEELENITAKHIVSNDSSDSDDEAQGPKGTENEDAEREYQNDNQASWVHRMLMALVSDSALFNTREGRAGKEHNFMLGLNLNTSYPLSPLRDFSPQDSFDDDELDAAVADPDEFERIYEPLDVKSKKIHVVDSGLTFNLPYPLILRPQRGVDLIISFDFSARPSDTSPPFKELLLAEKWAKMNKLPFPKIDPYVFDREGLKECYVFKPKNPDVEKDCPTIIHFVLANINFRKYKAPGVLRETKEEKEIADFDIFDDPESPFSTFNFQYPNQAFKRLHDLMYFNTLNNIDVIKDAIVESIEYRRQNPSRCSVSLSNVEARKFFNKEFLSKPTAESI

B1: 5-lipoxygenase (protein)
chain: MPSYTVTVATGSQWFAGTDDYIYLSLIGSAGCSEKHLLDKAFYNDFERGGRDSYDVTVDEELGEIYLVKIEKRKYRLHDDWYLKYITLKTPHDYIEFPCYRWITGEGEIVLRDGCAKLARDDQIHILKQHRRKELETRQKQYRWMEWNPGFPLSIDAKCHKDLPRDIQFDSEKGVDFVLNYSKAMENLFINRFMHMFQSSWHDFADFEKIFVKISNTISERVKNHWQEDLMFGYQFLNGCNPVLIKRCTELPKKLPVTTEMVECSLERQLSLEQEVQEGNIFIVDYELLDGIDANKTDPCTHQFLAAPICLLYKNLANKIVPIAIQLNQTPGEKNPIFLPTDSKYDWLLAKIWVRSSDFHIHQTITHLLRTHLVSEVFGIAMYRQLPAVHPLFKLLVAHVRFTIAINTKAREQLNCEYGLFDKANATGGGGHVQMVQRAVQDLTYSSLCFPEAIKARGMDNTEDIPYYFYRDDGLLVWEAIQSFTTEVVSIYYEDDQVVEEDQELQDFVKDVYVYGMRGRKASGFPKSIKSREKLSEYLTVVIFTASAQHAAVNFGQYDWCSWIPNAPPTMRAPPPTAKGVVTIEQIVDTLPDRGRSCWHLGAVWALSQFQENELFLGMYPEEHFIEKPVKEAMIRFRKNLEAIVSVIAERNKNKKLPYYYLSPDRIPNSVAI
Turning to B1, in series [1], the 15ELXA production result is listed as “it interacted with COX2 in the cytosolic fraction (FIG. 11) to generate 15ELXA (FIG. 9A)”. For the same protein, the LTB4 production in series [2] is 5-lipoxygenase co-immunoprecipitated with cPLA2 (FIG. 10) and metabolized arachidonic acid, generated by cPLA2, into LTB4.
